Results from US20080233135A1, “Cobalamin taxane bioconjugates” (priority 2007, published 2008).

Assays:
white blood cells = conditions: mice, about 2 mg/kg dose, 28 days
Procedure: A group of 6 mice are administered various dosages of the cobalamin-paclitaxel bioconjugate prepared in accordance with Example 1 over a 28 day period. The effects to the viable circulating endothelial cell precursors and white blood cells are measured after 28 days.

[1] = system: bFGF-stimulated formation of new blood vessel in the Matrigel plug; test: Matrigel plug perfusion in vivo assay (anti-angiogenic efficacy); conditions: mice, Matrigel and bFGF
From the text: The assay uses Matrigel, a gelatinous protein mixture secreted by mouse tumor cells and marketed by BD Biosciences, to duplicate tissue environments. Matrigel is liquid at room temperature, but when injected into the animal, forms a solid plug. If a growth vessel stimulant such as basic fibroblast growth factor (bFGF) is mixed with the Matrigel, the bFGF stimulates the formation of new blood vessel in the plug, which can be monitored in the animal via fluorescence techniques. In the current study, Matrigel is injected either alone or with bFGF subcutaneously into mice.

CC(=O)O[C@H]1C(=O)[C@@]2(C)C([C@H](OC(=O)c3ccccc3)[C@]3(O)C[C@H](OC(=O)[C@H](OC(=O)C[NH+](C)CC[CH2][Co+][N]4/C5=C(/C)C6=N/C(=C\C7=NC(=C(/C)C8=NC(C(C)C4C(CC(N)=O)C5(C)CCC(=O)NCC(C)OP(=O)([O-])OC4C(CO)OC(n5cnc9cc(C)c(C)cc95)C4O)C(C)(CC(N)=O)C8CCC(N)=O)/C(C)(CC(N)=O)C7CCC(N)=O)C(C)(C)C6CCC(N)=O)[C@@H](NC(=O)c4ccccc4)c4ccccc4)C(C)=C1C3(C)C)[C@]1(OC(C)=O)COC1C[C@@H]2O.[Cl-] (some centres unmarked) [cobalamin-paclitaxel bioconjugate, Cbl—(CH2)3N(CH3)CH2COO-2′-PTX]
toxicity by white blood cell count (white blood cells): no neutropenia
anti-angiogenic performance compared with DC101 [1]: better performance than that of DC101
